US20260265358A1 (BYOMASS, published 2026)
Several values for one entry are separate records, joined by “and”; a condition that tells them apart may be missing. Equal entries are not always repeated.

Legend:
[1] = molecular target: T1, GDF15 Fc (UniProt Q99988 197-308, limits assumed); assay: Octet BLI, IgG, avid
T1 construct: not shown: Fc part
T1 sequence (looked up): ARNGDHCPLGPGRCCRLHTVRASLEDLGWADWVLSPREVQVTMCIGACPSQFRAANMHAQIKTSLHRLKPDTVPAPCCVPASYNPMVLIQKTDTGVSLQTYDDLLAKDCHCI

[2] = molecular target: T2, Human GDF10 (human, UniProt P55107 369-478); assay: Octet BLI, IgG, avid
T2 sequence (looked up): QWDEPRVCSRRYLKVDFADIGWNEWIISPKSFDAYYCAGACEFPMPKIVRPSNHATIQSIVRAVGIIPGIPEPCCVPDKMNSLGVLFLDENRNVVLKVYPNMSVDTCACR

[3] = molecular target: T3, BMP9 (UniProt Q9UK05 320-429); assay: Octet BLI, IgG, avid
T3 sequence (looked up): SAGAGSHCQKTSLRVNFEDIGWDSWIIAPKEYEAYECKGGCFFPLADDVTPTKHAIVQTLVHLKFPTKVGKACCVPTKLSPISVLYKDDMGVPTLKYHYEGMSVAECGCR

[4] = molecular target: Human GDF11 (human, UniProt O95390 299-407); assay: Octet BLI, IgG, avid
Human GDF11, sequence (O95390 299-407 limits assumed): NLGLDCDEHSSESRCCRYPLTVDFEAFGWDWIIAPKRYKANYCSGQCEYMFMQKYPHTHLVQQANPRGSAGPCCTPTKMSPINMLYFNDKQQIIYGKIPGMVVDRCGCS

[5] = molecular target: T4, BMP10 (UniProt O95393 317-424); assay: Octet BLI, IgG, avid
T4 sequence (looked up): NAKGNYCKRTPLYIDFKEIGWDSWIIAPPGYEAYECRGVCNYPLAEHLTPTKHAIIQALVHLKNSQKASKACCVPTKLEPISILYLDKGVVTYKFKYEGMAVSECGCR

[6] = molecular target: T5, Activin B (UniProt P09529 293-407); assay: Octet BLI, IgG, avid
T5 sequence (looked up): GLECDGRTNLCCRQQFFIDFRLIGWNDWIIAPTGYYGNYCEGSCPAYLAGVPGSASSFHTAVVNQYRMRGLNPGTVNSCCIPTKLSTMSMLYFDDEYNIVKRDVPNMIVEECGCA

[7] = molecular target: Human GDF8 (human, UniProt O14793 267-375); assay: Octet BLI, IgG, avid
[8] = molecular target: T6, Human GDNF (human, UniProt P39905 78-211); assay: Octet BLI, IgG, avid
T6 sequence (looked up): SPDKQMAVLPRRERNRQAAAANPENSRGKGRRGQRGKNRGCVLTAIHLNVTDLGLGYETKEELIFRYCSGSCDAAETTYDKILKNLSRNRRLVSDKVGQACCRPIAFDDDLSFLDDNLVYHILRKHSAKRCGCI

[9] = molecular target: T5, Activin B; assay: cell-based or functional assay
[10] = molecular target: T7, Human Activin A Fc (human, UniProt P03970 309-424 (pig entry)); assay: Octet BLI, IgG, avid
T7 construct: also called human Activin A-Fc fusion; human Activin A-Fc antigen; not shown: Fc part
T7 sequence: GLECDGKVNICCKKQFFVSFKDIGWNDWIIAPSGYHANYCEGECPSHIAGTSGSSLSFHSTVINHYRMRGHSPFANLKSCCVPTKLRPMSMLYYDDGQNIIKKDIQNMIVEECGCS
Protocol: ForteBio affinity measurements were performed on an Octet HTX generally as previously described (see, e.g., Estep et al, Mabs 5(2), 270-278 (2013)). Briefly, ForteBio affinity measurements were performed by loading IgGs on-line onto AHC sensors. Sensors were equilibrated off-line in assay buffer for 30 min and then monitored on-line for 60 seconds for baseline establishment. Sensors with loaded IgGs were exposed to 100 nM antigen for 3 minutes, and afterwards were transferred to assay buffer for 3 min for off-rate measurement. All kinetics were analyzed using the 1:1 binding model.
Binding affinity and epitope binning assays were performed with a ForteBio instrument as described herein.

[11] = molecular target: T8, Activin A (ligand of the Activin 2B Receptor/SMAD reporter assay) (UniProt P08476 311-426); assay: cell-based or functional assay
T8 sequence (looked up): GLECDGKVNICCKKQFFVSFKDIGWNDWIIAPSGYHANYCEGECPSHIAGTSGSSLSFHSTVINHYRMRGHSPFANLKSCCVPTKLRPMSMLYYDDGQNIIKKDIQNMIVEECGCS

B1: anti-Activin A antibody Clone K (IgG) (antibody, V domains shown)
VH: QVQLVQSGAEVKKPGSSVKVSCKASGGTSSSYAISWVRQAPGQGLEWMGYIIPAFGTANYAQKFQGRVTITADESTSTAYMELSSLRSEDTAVYYCARPVRTYPLGKYFYHWGQGTLVTVSS
VL: EIVLTQSPATLSLSPGERATLSCRASQSVSSYLAWYQQKPGQAPRLLIYDASNRATGIPARFSGSGSGTDFTLTISSLEPEDFAVYYCQQDSIFPPYTFGGGTKVEIKR
notes: IgG format; also called Antibody K
binding result [1]: no binding (tested: 100 nM antigen) | binding result [2]: no binding (tested: 100 nM antigen) | binding result [3]: no binding (tested: 100 nM antigen) | binding result [4]: no binding (tested: 100 nM antigen) | binding result [5]: no binding (tested: 100 nM antigen) | binding result [6]: no binding (tested: 100 nM antigen) | binding result [7]: no binding (tested: 100 nM antigen) | binding result [8]: no binding (tested: 100 nM antigen) | Activin B-ActRIIB SMAD IC50 pM [9]: 30700 pM | Kd [10]: 0.43 nM

B2: anti-Activin A antibody Clone L (IgG) (antibody, V domains shown)
VH: QVQLQESGPGLVKPSETLSLTCAVSGYSISSGYYWGWIRQPPGKGLEWIGSIYHSGSTYYNPSLKSRVTISVDTSKNQFSLKLSSVTAADTAVYYCAREAGSGYWYLSVYGMDVWGQGTTVTVSS
VL: EIVLTQSPATLSVSPGERATLSCRASQSVSSNLAWYQQKPGQAPRLLIYGASTRATGIPARFSGSGSGTEFTLTISSLQSEDFAVYYCQQSDDWPWTFGGGTKVEIKR
notes: IgG format; also called Antibody L
binding result [1]: no binding (tested: 100 nM antigen) | binding result [2]: no binding (tested: 100 nM antigen) | binding result [3]: no binding (tested: 100 nM antigen) | binding result [4]: no binding (tested: 100 nM antigen) | binding result [5]: no binding (tested: 100 nM antigen) | Kd [6]: 241 nM | binding result [7]: no binding (tested: 100 nM antigen) | binding result [8]: no binding (tested: 100 nM antigen) | Activin B-ActRIIB SMAD IC50 pM [9]: > 100000 pM | Kd [10]: 1.57 nM | Activin A-ActRIIB SMAD IC50 pM [11]: 200 pM

B3: anti-Activin A antibody Clone A (IgG) (antibody, V domains shown)
VH: QVQLVQSGAEVKKPGASVKVSCKASGYTFTGYYMHWVRQAPGQGLEWMGSINPSSGGTNYAQKFQGRVTMTTDTSTSTAYMELRSLRSDDTAVYYCARARDIAAAGLGAFDYWGQGTLVTVSS
VL: EIVLTQSPGTLSLSPGERATLSCRASQSVRSSYLAWYQQKPGQAPRLLIYGASSRATGIPDRFSGSGSGTDFTLTISRLEPEDFAVYYCQQYVSYPRTFGGGTKVEIKR
notes: IgG format; also called Antibody A
binding result [1]: no binding (tested: 100 nM antigen) | binding result [2]: no binding (tested: 100 nM antigen) | binding result [3]: no binding (tested: 100 nM antigen) | binding result [4]: no binding (tested: 100 nM antigen) | binding result [5]: no binding (tested: 100 nM antigen) | binding result [6]: no binding (tested: 100 nM antigen) | binding result [7]: no binding (tested: 100 nM antigen) | binding result [8]: no binding (tested: 100 nM antigen) | Activin B-ActRIIB SMAD IC50 pM [9]: > 100000 pM | Kd [10]: 0.81 nM | Activin A-ActRIIB SMAD IC50 pM [11]: 324 pM and 282 pM and 361 pM

B4: anti-Activin A antibody Clone I (IgG) (antibody, V domains shown)
VH: QVQLVQSGAEVKKPGSSVKVSCKASGGTFSNYAISWVRQAPGQGLEWMGYIIPFFGTANYAQKFQGRVTITADESTSTAYMELSSLRSEDTAVYYCARGGSGYSTSWGSSLYWGQGTLVTVSS
VL: EIVLTQSPGTLSLSPGERATLSCRASQSVSSSYLAWYQQKPGQAPRLLIYGASYRATGIPDRFSGSGSGTDFTLTISRLEPEDFAVYYCLQSGVFPYTFGGGTKVEIKR
notes: IgG format; also called Antibody I
binding result [1]: no binding (tested: 100 nM antigen) | binding result [2]: no binding (tested: 100 nM antigen) | binding result [3]: no binding (tested: 100 nM antigen) | binding result [4]: no binding (tested: 100 nM antigen) | binding result [5]: no binding (tested: 100 nM antigen) | binding result [6]: no binding (tested: 100 nM antigen) | binding result [7]: no binding (tested: 100 nM antigen) | binding result [8]: no binding (tested: 100 nM antigen) | Activin B-ActRIIB SMAD IC50 pM [9]: 52400 pM | Kd [10]: 0.536 nM | Activin A-ActRIIB SMAD IC50 pM [11]: 1.09 pM

B5: anti-Activin A antibody Clone H (IgG) (antibody, V domains shown)
VH: QVQLVQSGAEVKKPGASVKVSCKASGYTFTGYHIHWVRQAPGQGLEWMGHISAYSGTTNYAQKLQGRVTMTTDTSTSTAYMELRSLRSDDTAVYYCARARDIAAAGLGAFDYWGQGTLVTVSS
VL: EIVLTQSPGTLSLSPGERATLSCRASQSVRSSYLAWYQQKPGQAPRLLIYGASSRATGIPDRFSGSGSGTDFTLTISRLEPEDFAVYYCQQYSNYPRTFGGGTKVEIKR
notes: IgG format; also called Antibody H
binding result [1]: no binding (tested: 100 nM antigen) | binding result [2]: no binding (tested: 100 nM antigen) | binding result [3]: no binding (tested: 100 nM antigen) | binding result [4]: no binding (tested: 100 nM antigen) | binding result [5]: no binding (tested: 100 nM antigen) | binding result [7]: no binding (tested: 100 nM antigen) | binding result [8]: no binding (tested: 100 nM antigen) | Activin B-ActRIIB SMAD IC50 pM [9]: > 100000 pM | Kd [10]: 0.666 nM | Activin A-ActRIIB SMAD IC50 pM [11]: 36.9 pM

B6: anti-Activin A antibody Clone G (IgG) (antibody, V domains shown)
VH: QVQLVQSGAEVKKPGASVKVSCKASGYTFTSYYIHWVRQAPGQGLEWMGAIYAYSGDTNYAQKLQGRVTMTTDTSTSTAYMELRSLRSDDTAVYYCARARDIAAAGLGAFDYWGQGTLVTVSS
VL: EIVLTQSPGTLSLSPGERATLSCRASQSVRSSYLAWYQQKPGQAPRLLIYGASSRATGIPDRFSGSGSGTDFTLTISRLEPEDFAVYYCQQYSNYPRTFGGGTKVEIKR
notes: IgG format; also called Antibody G
binding result [1]: no binding (tested: 100 nM antigen) | binding result [2]: no binding (tested: 100 nM antigen) | binding result [3]: no binding (tested: 100 nM antigen) | binding result [4]: no binding (tested: 100 nM antigen) | binding result [5]: no binding (tested: 100 nM antigen) | binding result [6]: no binding (tested: 100 nM antigen) | binding result [7]: no binding (tested: 100 nM antigen) | binding result [8]: no binding (tested: 100 nM antigen) | Activin B-ActRIIB SMAD IC50 pM [9]: > 100000 pM | Kd [10]: 0.68 nM | Activin A-ActRIIB SMAD IC50 pM [11]: 15.8 pM

B7: anti-Activin A antibody Clone E (IgG) (antibody, V domains shown)
VH: QVQLVQSGAEVKKPGASVKVSCKASGYTFHGYNMHWVRQAPGQGLEWMGSINPYSGYTIYAQKFQGRVTMTRDTSISTAYMELSRLRSDDTAVYYCARARDIAAAGLGAFDYWGQGTLVTVSS
VL: EIVLTQSPGTLSLSPGERATLSCRASQSVRSSYLAWYQQKPGQAPRLLIYGASSRATGIPDRFSGSGSGTDFTLTISRLEPEDFAVYYCQQYVSYPRTFGGGTKVEIKR
notes: IgG format; also called Antibody E
binding result [1]: no binding (tested: 100 nM antigen) | binding result [2]: no binding (tested: 100 nM antigen) | binding result [3]: no binding (tested: 100 nM antigen) | Kd [4]: 27.3 nM | binding result [5]: no binding (tested: 100 nM antigen) | binding result [7]: no binding (tested: 100 nM antigen) | binding result [8]: no binding (tested: 100 nM antigen) | Activin B-ActRIIB SMAD IC50 pM [9]: 83600 pM | Kd [10]: 0.551 nM | Activin A-ActRIIB SMAD IC50 pM [11]: 16.5 pM
